The text below walks through data of patent US20250221936A1, “ENGINEERED HEMICHANNELS, ENGINEERED VESICLES, AND USES THEREOF” (VIRGINIA TECH INTELLECTUAL PROPERTIES, INC., priority 2018, published 2025).

No end group written: not given here.

One series relates to Hela cells. Nature of the series: Cellular uptake of RhodB-aCT11 peptides. To be noted: 200 to 2000 μM, 30 or 90 minutes, 37 C. Type of series: cell-based. The source says:
Cells can take up the peptide, cytoplasmic esterases will cleave the allyl groups converting the peptide to RhodB-aCT11. RhodB-aCT11-Est, or any chemically modified drug molecule designed for cell uptake using ester bonded groups or related chemical modifications, can be packaged as cargo into EVs and exported by the cell into the media. EVs loaded with cargo molecules by this method can then be isolated using standard protocols and used in the treatment and other methods detailed herein.
Monolayers of Hela cells incubated with fluorescent-tagged RhodamineB-aCT11-Est, a cell-permeant peptide with allyl groups linked by ester bonds at aspartic (D) and glutamic (E) acid residues, as well as its carboxyl terminus are shown in FIG. 34A. The cells were incubated for 30 or 90 minutes at 37 C at pH 7.4 with different concentrations of peptides between 200 and 2000 μM. […] Cellular uptake can be observed in FIG. 34A to be particularly evident following 90 minutes at higher peptide concentrations (i.e., >1000 μM). […] RhodB-aCT11-Est taken up in this manner by cells can be packaged as cargo into EVs and following isolation can these EVs be used in treatment and other methods detailed herein.

Another series addresses Connexin 43 hemichannels (Homo sapiens, UniProt P17302). Type of series: cell-based. Particulars: 0.1 mM Ca^2+; Gap19 (200 μM). The procedure:
Media containing 0.1 mM Ca^2+ was used to open Cx43 hemichannels in the presence of 50 μM alphaCT11 peptide and/or the hemichannel blockers; Gap19 (200 μM) and carbenoxolone ([…]).

The subject of series [1] is EVs isolated from cow milk. Nature of the series: Milk EV loading with Calcein AM. To be noted: 0.1 and 1 μM. As for the experimental part:
EVs were isolated from cow milk and loaded with neutral non-fluorescent Calcein AM (10 μM) for 48 hours at 37 C in PBS buffer at pH 8.5 (FIG. 30A). […] Purity and integrity of exosomes isolated from cow milk was confirmed by negative stain electron microscopy (EM). FIG. 30B) illustrates an exosome isolated from cow milk. Scale bar=50 nm. The methods described herein of isolation from milk were adapted to obtain high yields of EV, taking particular care not to cause rapid and/or large-scale precipitation of milk casein, as well as in centrifugation steps, which can reduce EV yields from milk.
An exemplar of these methods is shown in FIGS. 31A-31C wherein Milk EVs incubated with Calcein AM show time-(FIG. 31A), pH-(FIG. 31B) and concentration-dependent effects on uptake of Calcein by EVs. Important to this method in the case of Calcein AM, are the multiple chemical groups linked by ester bonds to the molecule, which shield it's negatively charged moieties. Cleavage of these groups by ester bond breaking activities within EVs results in Calcein becoming negatively charged, fluorescent and retained within the EV—as exemplified by the green spots seen in most figure panels in FIG. 31. In FIG. 31A EVs are illustrated that were incubated for 1, 2 or 3 hours in PBS at 37 C at pH 7.4 with Calcein AM (5 μM). […]

Series [2] is classed as in vitro ADME. The source says: Despite efficacy of these peptides being delivered as unprotected peptide formulations, particularly when devlivered topically, delievery via many routes can be impeaded by degredation inside the body. Many other biologic and small molecule therapeutics also suffer from similar degradeation issues. Indeed, most unprotected short peptides and polynucleotides (e.g. miRNAs) are rapidly degraded in body fluids in vivo, thereby limiting the interest of the pharmaceutical industry in such molecules. This consideration is particularly relevant in pathologic situations, such as the heart post-MI, where hypoxia, oxygen free radicals, and […] prompt upregulation of degradation pathways. […] Protection by being loaded inside of an engineered vesicle can reduce degredation and/or can facilitate delivery of the cargo by forming channels with connexons present in cell membranes. See e.g. FIG. 17.

The test system of series [3] is HC (hemichannel) activity. Description: Hemichannel block in perfused hearts. To be noted: 2 micromolar for 20 minutes before biotin-alphaCT11 infusion. Also on record: species or system mouse. The procedure: Briefly, isolated mouse hearts were perfused with 2 micromolar carbenoxolone for 20 minutes to block HC (hemichannel) activity prior to a 20 minute infusion with biotinylated alpha CT11 (biotin-alphaCT11) according to the method described in Example 20. […] Biotinylated alpha CT11 was detected and measured on LV cryosections by streptavidin Alexa647 as noted in association with FIGS. 18A-18E.

For a further series, the target named is T1, GST-Cx43 CT (Rattus norvegicus, UniProt P08050).
T1 construct: pGEX-6-P2 Cx43 CT amino acids 255-382; made in house; host or cells: E. coli BL21
T1 sequence (P08050 255-382): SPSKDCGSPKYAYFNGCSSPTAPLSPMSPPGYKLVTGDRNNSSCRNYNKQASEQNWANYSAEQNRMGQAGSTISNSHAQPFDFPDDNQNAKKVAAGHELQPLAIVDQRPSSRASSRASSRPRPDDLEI
Nature of the series: EDC cross-linking of kinase reaction mixtures, Cx43 CT. Type of series: binding. Particulars: 5, 10 and 25 μM. As for the experimental part:
To characterize the interaction between the Cx43 CT substrate and peptides, the in vitro kinase assay was performed as above with modification and the constituents then subjected to a cross-linking reaction. The assay buffer used was 20 mM 3-(N-morpholino) propanesulfonic acid (MOPS), pH 7.2. All other reagents present in the kinase reaction were maintained as described above. The reaction was allowed to proceed at 37° C. for 15 minutes. Afterwards, the carbodiimide crosslinker 1-Ethyl-3-(3-dimethylaminopropyl) carbodiimide HCl (EDC) (Thermo, 22980) was added to each solution for a final concentration of 20 mM. The solution was allowed to cross-link for one hour at room temperature. The reaction was stopped by the addition of 4×LDS loading buffer, boiled for 5 minutes and subsequently separated by PAGE. The resulting gel was stained in Coomassie brilliant blue (Sigma, B0770) for two hours and destained in a solution of 4% methanol 7% acetic acid overnight. Gel bands were subsequently excised for mass spectrometric analysis. For the direct interaction between protein and peptides, PBS, pH 7.5 was used as the coupling buffer. The protein (50 μg/ml) and peptide (25 μM) were allowed to react at room temperature for one hour before EDAC was added to the reaction mixture. The reaction was Western blotted for Cx43, GST or NeutroAvidin. […]

For a further series, the target named is T2, ZO-1 PDZ2 (Homo sapiens, UniProt Q07157).
T2 construct: the second of the three PDZ (PDZ2) domains of ZO-1; made in house; host or cells: E. coli BL21
T2 sequence (Q07157 186-264 limits assumed): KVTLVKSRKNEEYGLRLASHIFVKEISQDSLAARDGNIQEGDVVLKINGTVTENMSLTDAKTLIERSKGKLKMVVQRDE
Nature of the series: Protein thermal shift assay, ZO-1 PDZ2. Type of series: binding. Particulars: 500 μg/ml protein, 25-100 μM peptide. As for the experimental part:
Thermal stability of recombinant GST-PDZ2 or Cx43 CT in the presence or absence of peptides was determined in a 96-well format. Each assay well was composed of 500 μg/ml protein, 25-100 μM of each peptide in PBS buffer, pH7.4. All assays were performed independently six times. Samples were generally prepared in 96-well plates at final volumes of 20 μL. The fluorescent dye SYPRO Orange (5000× concentrate in DMSO, ThermoFisher, S6650) was added to a final concentration of 8X. Reactions were run on QuantStudio 6 Flex Real-Time PCR system (Applied Biosystems, part of Life Technologies Corporation, CA) according to the manufacturer's recommendations using a melt protocol in 0.05-degree/see increments from 25° C. to 95° C. The Reporter Dye was “ROX” and quencher Dye and passive reference were selected as “None” for the melt curve according to manufacturer's instructions. The data were analyzed using Protein Thermal Shift™ Software v1.3 package (Applied Biosystems, CA).

The target in series [4] is Cx43 CT (Connexin 43 carboxyl terminus, amino acids 255 to 382) (UniProt P08050 255-382, limits assumed). Nature of the series: cell-based or functional assay.
Cx43 CT (Connexin 43 carboxyl terminus, amino acids 255 to 382), sequence (P08050 255-382 limits assumed): as the sequence (P08050 255-382) above

Connexin 43 hemichannels, sequence (P17302 2-382 limits assumed): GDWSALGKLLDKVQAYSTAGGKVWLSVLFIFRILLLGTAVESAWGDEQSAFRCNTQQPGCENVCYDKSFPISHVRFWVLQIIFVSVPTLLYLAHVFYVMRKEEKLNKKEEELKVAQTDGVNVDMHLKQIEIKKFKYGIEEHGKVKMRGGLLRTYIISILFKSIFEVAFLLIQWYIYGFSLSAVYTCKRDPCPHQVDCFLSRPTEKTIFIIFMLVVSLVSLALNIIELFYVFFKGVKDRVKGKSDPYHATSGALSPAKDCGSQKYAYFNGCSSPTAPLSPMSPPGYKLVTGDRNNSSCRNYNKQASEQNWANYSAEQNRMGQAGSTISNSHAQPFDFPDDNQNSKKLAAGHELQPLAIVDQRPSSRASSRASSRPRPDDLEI

For “RhodB-aCT11: fluorescently tagged RhodamineB aCT11 peptide (RPRPDDLEI) without ester bonded groups (also: RhodamineB label, site not given here)”, the cellular uptake result in the series with Hela cells is “little evidence for uptake of RhodB-aCT11 is observed”; in the series on Hela cells (listed as RhodamineB aCT11) it was “does not indicate cellular uptake”.

Consider “Gap19: Cx43 hemichannel blocker (KQIEIKKFK; Gap19; UniProt P17302 128-136, looked up, fragment)”, for which the “alphaCT11 uptake in presence of hemichannel blocker” value with Connexin 43 hemichannels is “Dramatically lower levels of peptide uptake”.

With `O=S(=O)(F)Cc1ccccc1` [PMSF], the “Calcein uptake into and retention within milk EVs” value in series [1] is “respectively inhibited and blocked”.

Consider RPRPDDLEI [alpha CT11, RPRPDDLEI], for which the “time to degradation in blood serum” value in series [2] was “about 30 minutes”.

As for `CC1(C)[C@@H](OC(=O)CCC(=O)O)CC[C@]2(C)[C@H]3C(=O)C=C4[C@@H]5C[C@@](C)(C(=O)O)CC[C@]5(C)CC[C@@]4(C)[C@]3(C)CC[C@@H]12` [carbenoxolone], the “alphaCT11 uptake in presence of hemichannel blocker” value on Connexin 43 hemichannels was “Dramatically lower levels of peptide uptake”. Moreover, in series [3], the “cytoplasmic levels of alpha CT11 in myocytes” value is reported as “significant reductions (p<0.05) in cytoplastic levels of alpha CT11”.

As to “RQPKIWFPNRRKPWKK LPAARIAPR (RQPKIWFPNRRKPWKKLPAARIAPR) [M4 scram., reference compound]”, the “EDC cross-linking to Cx43 CT” value with GST-Cx43 CT is “no evidence of cross-linking”. Besides, the “PDZ2 melt temperature (Tm)” value with ZO-1 PDZ2 is reported as “PDZ2 interaction incompetent”.

B1: alpha CT1 (peptide)
peptide: RQPKIWFPNRRKPWKKRPRPDDLEI
modifications: not fully specified
In the case of B1, in series [4], the “Cx43 S368 phosphorylation (PKC-ε kinase assay, blots of pS368 over total Cx43)” value was around 3 fold.
